The values below come from patent publication US20110038869A1.

The IC50 is the concentration that gives 50% inhibition. Read a high IC50 as weaker potency. Usually EC50 stands for the concentration that produces a half-maximal response. A lower EC50 goes with a more potent agent. As usually defined, the Kd is the constant that tells how readily two partners part at equilibrium. A lower Kd goes with a tighter complex. The koff is the rate constant with which the complex falls apart. A low value points to a long-lived complex. By kon is commonly meant the second-order rate constant of association. A high value points to fast association.

Like-named read-outs stand apart in the source and are kept apart here.

Test [1] concerns the target CD32bECDHis (human) (UniProt P31994). The experiment in a line: TR-FRET competition of unlabeled against labelled HuMab-KLH, Fc-mediated. (In general: TR-FRET usually uses a lanthanide donor and a delayed reading to cut background.)
For the next test, the target named is CD32aECDHis (human) (UniProt P12318). Described as above.
Test [2] addresses biotinylated CD32bECDHis (human) (UniProt P31994). Description: competition ELISA, competitor 020. Background: An ELISA detects its analyte on a solid surface through an enzyme-linked reagent.
Test [3] concerns the target CD32b on CD32b+ Daudi cells (Daudi-luc) (human) (UniProt P31994). The experiment in a line: flow cytometry on Daudi-luc cells. Background: A flow cytometer gives signals particle by particle.
The target in test [4] is CD32bECDHis (human) (UniProt P31994). Description: TR-FRET competition against HuMab-KLH-AlexaFluor 647.
Test [5] shares this target. The experiment in a line: SPR BIAcore 3000, antibody immobilized, CD32bECDHis analyte.
Test [6] concerns the target CD32b on CD32b+ Daudi cells (Daudi-luc) (human) (UniProt P31994). The experiment in a line: cell-based or functional assay.
Test [7] concerns the target full length CD32b2 on transfected IIA1.6 cells (human) (UniProt P31994). Description: flow cytometry on IIA1.6-CD32b2 cells.
Test [8] concerns the target CD32b on CD32b+ Daudi cells (Daudi-luc) (human) (UniProt P31994). The experiment in a line: flow cytometry on JeKo-1 mantle cell lymphoma cells.
For test [9], the target named is biotinylated CD32bECDHis (human) (UniProt P31994). Description: competition ELISA, competitor 053.
Test [10] addresses full length CD32b1 on transfected IIA1.6 cells (human) (UniProt P31994). Description: flow cytometry on IIA1.6-CD32b1 against IIA1.6-CD32b2 cells.
The target of test [11] is biotinylated CD32bECDHis (human) (UniProt P31994). The experiment in a line: competition ELISA, competitor 024.
Test [12] shares this target. The experiment in a line: competition ELISA, competitor 028.
The target is the same in test [13]. The experiment in a line: competition ELISA, competitor 016.
Test [14] addresses full length CD32b on stably transfected IIA1.6 cells (human) (UniProt P31994). Description: flow cytometry on IIA1.6-CD32b cells.
Test [15] deals with biotinylated CD32bECDHis (human) (UniProt P31994). The experiment in a line: competition ELISA, competitor 038.
Test [16] concerns the target full length CD32b1 on transfected IIA1.6 cells (human) (UniProt P31994). Description: flow cytometry on IIA1.6-CD32b1 cells.
The target in test [17] is biotinylated CD32bECDHis (human) (UniProt P31994). The experiment in a line: competition ELISA, competitor 2B6.
For test [18] the target is unchanged. The experiment in a line: competition ELISA, competitor 026.
The target in test [19] is CD32bECDHis (human) (UniProt P31994). The experiment in a line: ELISA on coated CD32bECDHis.
Test [20] concerns the target biotinylated CD32bECDHis (human) (UniProt P31994). Description: competition ELISA, competitor 063.
Test [21] has as its target CD32b on CD32b+ Daudi cells (Daudi-luc) (human) (UniProt P31994). The experiment in a line: cell-based or functional assay. This is another data set of the same source.
Test [22] concerns the target biotinylated CD32bECDHis (human) (UniProt P31994). The experiment in a line: competition ELISA, competitor 022.
Test [23] has the same target. Description: competition ELISA, competitor 034.

CD32b on CD32b+ Daudi cells (Daudi-luc) (human), sequence (P31994 43-310): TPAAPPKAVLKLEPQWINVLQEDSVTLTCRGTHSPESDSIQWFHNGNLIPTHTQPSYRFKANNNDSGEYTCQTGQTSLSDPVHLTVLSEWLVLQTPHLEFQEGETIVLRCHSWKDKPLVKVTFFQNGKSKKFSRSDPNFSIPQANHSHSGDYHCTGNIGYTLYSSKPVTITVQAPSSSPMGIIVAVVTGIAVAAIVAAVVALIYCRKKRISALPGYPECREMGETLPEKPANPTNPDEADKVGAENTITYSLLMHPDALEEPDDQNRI
CD32bECDHis (human), sequence (P31994 43-223 limits assumed, form in doubt): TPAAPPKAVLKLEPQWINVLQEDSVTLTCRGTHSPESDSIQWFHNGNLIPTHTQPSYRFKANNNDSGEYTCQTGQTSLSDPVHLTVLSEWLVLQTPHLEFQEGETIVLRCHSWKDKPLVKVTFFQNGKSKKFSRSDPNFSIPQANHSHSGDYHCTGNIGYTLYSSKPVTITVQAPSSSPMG
biotinylated CD32bECDHis (human), sequence (P31994 43-223 limits assumed, form in doubt): as above
full length CD32b1 on transfected IIA1.6 cells (human), sequence (P31994 43-310): as the sequence (P31994 43-310) above
full length CD32b on stably transfected IIA1.6 cells (human), sequence (P31994 43-310): as above
CD32aECDHis (human), sequence (P12318 34-215 limits assumed, form in doubt): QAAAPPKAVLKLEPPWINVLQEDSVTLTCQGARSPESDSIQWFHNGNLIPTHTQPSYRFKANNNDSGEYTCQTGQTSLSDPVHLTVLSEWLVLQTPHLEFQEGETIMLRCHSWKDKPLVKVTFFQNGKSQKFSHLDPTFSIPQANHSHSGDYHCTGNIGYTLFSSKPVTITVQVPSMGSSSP
full length CD32b2 on transfected IIA1.6 cells (human), sequence (P31994 other isoform, or with tags, fused parts or gaps): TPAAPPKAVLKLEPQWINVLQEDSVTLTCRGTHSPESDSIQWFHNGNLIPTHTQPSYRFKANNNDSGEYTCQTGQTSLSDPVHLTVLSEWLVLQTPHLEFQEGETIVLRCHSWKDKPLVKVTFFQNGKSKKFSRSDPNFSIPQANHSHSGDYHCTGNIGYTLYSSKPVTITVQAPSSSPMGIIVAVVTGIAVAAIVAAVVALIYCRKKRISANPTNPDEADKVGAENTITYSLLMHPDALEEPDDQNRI

Turning to “HuMab-KLH (a human monoclonal antibody against KLH (keyhole limpet haemocyanin))”, the IC50 was 417000 pM with CD32bECDHis (human) [1] and 134000 pM with CD32aECDHis (human).

Turning to chimeric anti-CD32b antibody 2B6, the % residual binding in test [2] was 163%; in [9], 185%; in [11], 174%; in test [12], 165%; in test [13], 105%; in test [15] it was 113%. The % residual binding in test [17] came to 20%; in test [18], 168%; in [20] it was 181%; in test [22], 179%; in test [23], 185%. Moreover, the EC50 is 100 pM in [3]; 190 pM in [7]; 340 pM in test [8]; 1490 pM in test [14]; 240 pM in [16]; 1240 pM in the test with CD32bECDHis (human) [19]. Besides, the IC50 with CD32bECDHis (human) [4] is 570 pM. Moreover, the Kd in the test with CD32bECDHis (human) [5] came to 300 pM. The substance also gave a koff in the test with CD32bECDHis (human) [5] of 0.00087 s⁻¹. In the test with CD32bECDHis (human) [5], the kon worked out at 2.61e+06 M⁻¹ s⁻¹. The EC50 (nM) in ADCC, lysis of 51Cr-labelled Daudi cells by PBMC was determined as 0.13 nM in test [6] and 0.25 nM in test [21]. Moreover, the Ratio EC50 (CD32b1)/EC50(CD32b2) in [10] stood at 1.27.
